# Assay results: patent publication US20140213513A1 (Sanofi, priority 2012, published 2014)
# *1 amine or outer side, *2 acyl side, *3 side chain or, on linkers, in order; H or OH if unused. Where no end group is shown, it is not given here. Side-chain parts run from the residue outwards. [ ]: non-standard residue; d: D form. The star is where a group is joined. γGlu = O=C(O)[C@H](CCC(=O)[*:2])N[*:1]; Stearoyl = CCCCCCCCCCCCCCCCCC(=O)*; Palmitoyl = CCCCCCCCCCCCCCCC(=O)*; Aib = CC(C)(N)C(=O)O
# T1: human GIP receptor (human, UniProt P48546 22-466)
# T1 sequence (looked up): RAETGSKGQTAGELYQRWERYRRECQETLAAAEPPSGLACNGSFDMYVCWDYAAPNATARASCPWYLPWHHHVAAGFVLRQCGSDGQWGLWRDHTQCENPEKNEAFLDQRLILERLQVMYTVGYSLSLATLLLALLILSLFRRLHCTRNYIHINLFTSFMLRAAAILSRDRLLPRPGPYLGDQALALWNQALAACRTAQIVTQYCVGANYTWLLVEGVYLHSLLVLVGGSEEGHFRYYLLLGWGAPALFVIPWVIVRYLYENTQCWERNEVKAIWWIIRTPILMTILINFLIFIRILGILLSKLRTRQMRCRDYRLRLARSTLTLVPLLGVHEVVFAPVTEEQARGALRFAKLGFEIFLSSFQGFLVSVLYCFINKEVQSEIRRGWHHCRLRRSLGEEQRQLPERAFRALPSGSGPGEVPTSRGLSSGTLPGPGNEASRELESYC
# B1: exendin-4 peptide analogue SEQ ID NO: 63 (peptide)
# peptide: Y[Aib]EGTFTSDLSKQK([γGlu-Palmitoyl])DKRAAQDFIEWLKAGGPSSGAPPPS-NH2
# modifications: N-terminus assumed
# SMILES: CCCCCCCCCCCCCCCC(=O)N[C@@H](CCC(=O)NCCCC[C@H](NC(=O)[C@H](CCC(N)=O)NC(=O)[C@H](CCCCN)NC(=O)[C@H](CO)NC(=O)[C@H](CC(C)C)NC(=O)[C@H](CC(=O)O)NC(=O)[C@H](CO)NC(=O)[C@@H](NC(=O)[C@H](Cc1ccccc1)NC(=O)[C@@H](NC(=O)CNC(=O)[C@H](CCC(=O)O)NC(=O)C(C)(C)NC(=O)[C@@H](N)Cc1ccc(O)cc1)[C@@H](C)O)[C@@H](C)O)C(=O)N[C@@H](CC(=O)O)C(=O)N[C@@H](CCCCN)C(=O)N[C@@H](CCCNC(=N)N)C(=O)N[C@@H](C)C(=O)N[C@@H](C)C(=O)N[C@@H](CCC(N)=O)C(=O)N[C@@H](CC(=O)O)C(=O)N[C@@H](Cc1ccccc1)C(=O)N[C@H](C(=O)N[C@@H](CCC(=O)O)C(=O)N[C@@H](Cc1c[nH]c2ccccc12)C(=O)N[C@@H](CC(C)C)C(=O)N[C@@H](CCCCN)C(=O)N[C@@H](C)C(=O)NCC(=O)NCC(=O)N1CCC[C@H]1C(=O)N[C@@H](CO)C(=O)N[C@@H](CO)C(=O)NCC(=O)N[C@@H](C)C(=O)N1CCC[C@H]1C(=O)N1CCC[C@H]1C(=O)N1CCC[C@H]1C(=O)N[C@@H](CO)C(N)=O)[C@@H](C)CC)C(=O)O
# B2: exendin-4 peptide analogue SEQ ID NO: 12 (peptide)
# peptide: Y[Aib]QGTFTSDLSIQK([γGlu-Palmitoyl])EKAAA[Aib]EFIEWLKNTGPSSGAPPPS-NH2
# modifications: N-terminus assumed
# SMILES: CCCCCCCCCCCCCCCC(=O)N[C@@H](CCC(=O)NCCCC[C@H](NC(=O)[C@H](CCC(N)=O)NC(=O)[C@@H](NC(=O)[C@H](CO)NC(=O)[C@H](CC(C)C)NC(=O)[C@H](CC(=O)O)NC(=O)[C@H](CO)NC(=O)[C@@H](NC(=O)[C@H](Cc1ccccc1)NC(=O)[C@@H](NC(=O)CNC(=O)[C@H](CCC(N)=O)NC(=O)C(C)(C)NC(=O)[C@@H](N)Cc1ccc(O)cc1)[C@@H](C)O)[C@@H](C)O)[C@@H](C)CC)C(=O)N[C@@H](CCC(=O)O)C(=O)N[C@@H](CCCCN)C(=O)N[C@@H](C)C(=O)N[C@@H](C)C(=O)N[C@@H](C)C(=O)NC(C)(C)C(=O)N[C@@H](CCC(=O)O)C(=O)N[C@@H](Cc1ccccc1)C(=O)N[C@H](C(=O)N[C@@H](CCC(=O)O)C(=O)N[C@@H](Cc1c[nH]c2ccccc12)C(=O)N[C@@H](CC(C)C)C(=O)N[C@@H](CCCCN)C(=O)N[C@@H](CC(N)=O)C(=O)N[C@H](C(=O)NCC(=O)N1CCC[C@H]1C(=O)N[C@@H](CO)C(=O)N[C@@H](CO)C(=O)NCC(=O)N[C@@H](C)C(=O)N1CCC[C@H]1C(=O)N1CCC[C@H]1C(=O)N1CCC[C@H]1C(=O)N[C@@H](CO)C(N)=O)[C@@H](C)O)[C@@H](C)CC)C(=O)O
# B3: exendin-4 peptide analogue SEQ ID NO: 64 (peptide)
# peptide: Y[Aib]EGTFTSDLSIQK([γGlu-Stearoyl])EERAVRLFIEWLKAGGPSSGAPPPS-NH2
# modifications: N-terminus assumed
# SMILES: CCCCCCCCCCCCCCCCCC(=O)N[C@@H](CCC(=O)NCCCC[C@H](NC(=O)[C@H](CCC(N)=O)NC(=O)[C@@H](NC(=O)[C@H](CO)NC(=O)[C@H](CC(C)C)NC(=O)[C@H](CC(=O)O)NC(=O)[C@H](CO)NC(=O)[C@@H](NC(=O)[C@H](Cc1ccccc1)NC(=O)[C@@H](NC(=O)CNC(=O)[C@H](CCC(=O)O)NC(=O)C(C)(C)NC(=O)[C@@H](N)Cc1ccc(O)cc1)[C@@H](C)O)[C@@H](C)O)[C@@H](C)CC)C(=O)N[C@@H](CCC(=O)O)C(=O)N[C@@H](CCC(=O)O)C(=O)N[C@@H](CCCNC(=N)N)C(=O)N[C@@H](C)C(=O)N[C@H](C(=O)N[C@@H](CCCNC(=N)N)C(=O)N[C@@H](CC(C)C)C(=O)N[C@@H](Cc1ccccc1)C(=O)N[C@H](C(=O)N[C@@H](CCC(=O)O)C(=O)N[C@@H](Cc1c[nH]c2ccccc12)C(=O)N[C@@H](CC(C)C)C(=O)N[C@@H](CCCCN)C(=O)N[C@@H](C)C(=O)NCC(=O)NCC(=O)N1CCC[C@H]1C(=O)N[C@@H](CO)C(=O)N[C@@H](CO)C(=O)NCC(=O)N[C@@H](C)C(=O)N1CCC[C@H]1C(=O)N1CCC[C@H]1C(=O)N1CCC[C@H]1C(=O)N[C@@H](CO)C(N)=O)[C@@H](C)CC)C(C)C)C(=O)O
# B4: exendin-4 peptide analogue SEQ ID NO: 11 (peptide)
# peptide: Y[Aib]QGTFTSDLSIQK([γGlu-Palmitoyl])EKR[Aib]A[Aib]EFIEWLKNTGPSSGAPPPS-NH2
# modifications: N-terminus assumed
# SMILES: CCCCCCCCCCCCCCCC(=O)N[C@@H](CCC(=O)NCCCC[C@H](NC(=O)[C@H](CCC(N)=O)NC(=O)[C@@H](NC(=O)[C@H](CO)NC(=O)[C@H](CC(C)C)NC(=O)[C@H](CC(=O)O)NC(=O)[C@H](CO)NC(=O)[C@@H](NC(=O)[C@H](Cc1ccccc1)NC(=O)[C@@H](NC(=O)CNC(=O)[C@H](CCC(N)=O)NC(=O)C(C)(C)NC(=O)[C@@H](N)Cc1ccc(O)cc1)[C@@H](C)O)[C@@H](C)O)[C@@H](C)CC)C(=O)N[C@@H](CCC(=O)O)C(=O)N[C@@H](CCCCN)C(=O)N[C@@H](CCCNC(=N)N)C(=O)NC(C)(C)C(=O)N[C@@H](C)C(=O)NC(C)(C)C(=O)N[C@@H](CCC(=O)O)C(=O)N[C@@H](Cc1ccccc1)C(=O)N[C@H](C(=O)N[C@@H](CCC(=O)O)C(=O)N[C@@H](Cc1c[nH]c2ccccc12)C(=O)N[C@@H](CC(C)C)C(=O)N[C@@H](CCCCN)C(=O)N[C@@H](CC(N)=O)C(=O)N[C@H](C(=O)NCC(=O)N1CCC[C@H]1C(=O)N[C@@H](CO)C(=O)N[C@@H](CO)C(=O)NCC(=O)N[C@@H](C)C(=O)N1CCC[C@H]1C(=O)N1CCC[C@H]1C(=O)N1CCC[C@H]1C(=O)N[C@@H](CO)C(N)=O)[C@@H](C)O)[C@@H](C)CC)C(=O)O
# B5: exendin-4 peptide analogue SEQ ID NO: 66 (peptide)
# peptide: Y[Aib]QGTFTSDLSKQK([γGlu-Palmitoyl])DSRAAQDFIEWLKAGGPSSGAPPPS-NH2
# modifications: N-terminus assumed
# SMILES: CCCCCCCCCCCCCCCC(=O)N[C@@H](CCC(=O)NCCCC[C@H](NC(=O)[C@H](CCC(N)=O)NC(=O)[C@H](CCCCN)NC(=O)[C@H](CO)NC(=O)[C@H](CC(C)C)NC(=O)[C@H](CC(=O)O)NC(=O)[C@H](CO)NC(=O)[C@@H](NC(=O)[C@H](Cc1ccccc1)NC(=O)[C@@H](NC(=O)CNC(=O)[C@H](CCC(N)=O)NC(=O)C(C)(C)NC(=O)[C@@H](N)Cc1ccc(O)cc1)[C@@H](C)O)[C@@H](C)O)C(=O)N[C@@H](CC(=O)O)C(=O)N[C@@H](CO)C(=O)N[C@@H](CCCNC(=N)N)C(=O)N[C@@H](C)C(=O)N[C@@H](C)C(=O)N[C@@H](CCC(N)=O)C(=O)N[C@@H](CC(=O)O)C(=O)N[C@@H](Cc1ccccc1)C(=O)N[C@H](C(=O)N[C@@H](CCC(=O)O)C(=O)N[C@@H](Cc1c[nH]c2ccccc12)C(=O)N[C@@H](CC(C)C)C(=O)N[C@@H](CCCCN)C(=O)N[C@@H](C)C(=O)NCC(=O)NCC(=O)N1CCC[C@H]1C(=O)N[C@@H](CO)C(=O)N[C@@H](CO)C(=O)NCC(=O)N[C@@H](C)C(=O)N1CCC[C@H]1C(=O)N1CCC[C@H]1C(=O)N1CCC[C@H]1C(=O)N[C@@H](CO)C(N)=O)[C@@H](C)CC)C(=O)O
# B6: exendin-4 peptide analogue SEQ ID NO: 62 (peptide)
# peptide: Y[Aib]EGTFTSDLSIQK([γGlu-Stearoyl])EEEAVKLFIEWLKAGGPSSGAPPPS-NH2
# modifications: N-terminus assumed
# SMILES: CCCCCCCCCCCCCCCCCC(=O)N[C@@H](CCC(=O)NCCCC[C@H](NC(=O)[C@H](CCC(N)=O)NC(=O)[C@@H](NC(=O)[C@H](CO)NC(=O)[C@H](CC(C)C)NC(=O)[C@H](CC(=O)O)NC(=O)[C@H](CO)NC(=O)[C@@H](NC(=O)[C@H](Cc1ccccc1)NC(=O)[C@@H](NC(=O)CNC(=O)[C@H](CCC(=O)O)NC(=O)C(C)(C)NC(=O)[C@@H](N)Cc1ccc(O)cc1)[C@@H](C)O)[C@@H](C)O)[C@@H](C)CC)C(=O)N[C@@H](CCC(=O)O)C(=O)N[C@@H](CCC(=O)O)C(=O)N[C@@H](CCC(=O)O)C(=O)N[C@@H](C)C(=O)N[C@H](C(=O)N[C@@H](CCCCN)C(=O)N[C@@H](CC(C)C)C(=O)N[C@@H](Cc1ccccc1)C(=O)N[C@H](C(=O)N[C@@H](CCC(=O)O)C(=O)N[C@@H](Cc1c[nH]c2ccccc12)C(=O)N[C@@H](CC(C)C)C(=O)N[C@@H](CCCCN)C(=O)N[C@@H](C)C(=O)NCC(=O)NCC(=O)N1CCC[C@H]1C(=O)N[C@@H](CO)C(=O)N[C@@H](CO)C(=O)NCC(=O)N[C@@H](C)C(=O)N1CCC[C@H]1C(=O)N1CCC[C@H]1C(=O)N1CCC[C@H]1C(=O)N[C@@H](CO)C(N)=O)[C@@H](C)CC)C(C)C)C(=O)O
# Target: human GLP-1 receptor (human, UniProt P43220 24-463)
# Assay: cell-based or functional assay
row,Binder,EC50 hGLP-1 R
1,B1,6 pM
2,B2,5.5 pM
3,B3,10.2 pM
4,B4,3.8 pM
5,B5,3.6 pM
6,B6,7.6 pM

# Target: T1, human GIP receptor
# Assay: cell-based or functional assay
row,Binder,EC50 hGIP R
1,B1,11.9 pM
2,B2,8 pM
3,B3,9.6 pM
4,B4,14.4 pM
5,B5,82.6 pM
6,B6,6.7 pM

# Target: human glucagon receptor (human, UniProt P47871 26-477)
# Assay: cell-based or functional assay
# human glucagon receptor, sequence (P47871 26-477): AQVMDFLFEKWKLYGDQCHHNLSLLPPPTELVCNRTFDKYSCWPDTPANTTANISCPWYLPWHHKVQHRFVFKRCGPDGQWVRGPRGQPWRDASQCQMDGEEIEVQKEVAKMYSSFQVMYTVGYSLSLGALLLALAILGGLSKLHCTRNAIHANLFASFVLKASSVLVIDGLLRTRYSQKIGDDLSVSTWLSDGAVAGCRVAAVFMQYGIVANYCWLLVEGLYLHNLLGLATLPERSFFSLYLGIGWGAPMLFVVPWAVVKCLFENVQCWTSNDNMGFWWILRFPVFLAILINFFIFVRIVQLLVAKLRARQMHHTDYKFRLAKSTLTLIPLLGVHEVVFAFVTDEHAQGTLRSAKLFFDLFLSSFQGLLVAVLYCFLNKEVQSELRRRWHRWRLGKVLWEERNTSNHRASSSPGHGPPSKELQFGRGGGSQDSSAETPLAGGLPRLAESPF
row,Binder,EC50 hGLUC R
1,B1,1.67 nM
2,B2,0.139 nM
3,B3,75.1 nM
4,B4,0.0669 nM
5,B5,0.0052 nM
6,B6,> 1000 nM
